Test results as given in the supplement of paper PMC9112550, “Optimization of the antimicrobial peptide Bac7 by deep mutational scanning” (BMC Biology, 2022).

tested on: Escherichia coli TOP10; assay: shrunken log2 fold change of peptide-encoding DNA abundance (4.5 h post-induction vs induction); higher = less antimicrobial activity (less host growth inhibition); details: time post-induction: 4.5 h; library: site-saturation at positions 5, 18, 19, 20
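Also: peptides expressed intracellularly from a pBAD plasmid library in pooled LB shake-flask culture, induced with 0.3% L-arabinose, DNA abundance read by NGS, three biological replicates, DESeq2 with apeglm shrinkage.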

Sequence | shrunken log2 fold change
RRIRVRPPRLPRPRPRPLWDPRP | 0.00404
RRIRWRPPRLPRPRPRPFVQPRP | -0.184
RRIRPRPPRLPRPRPRPIMPPRP | -0.257
RRIRGRPPRLPRPRPRPDDIPRP | 0.027
RRIRIRPPRLPRPRPRPEGRPRP | -0.0382
RRIRVRPPRLPRPRPRPKWAPRP | 0.269
RRIRCRPPRLPRPRPRPERNPRP | -0.223
RRIRKRPPRLPRPRPRPTINPRP | -0.184
RRIRNRPPRLPRPRPRPVYVPRP | -0.284
RRIRLRPPRLPRPRPRPVVVPRP | 1.45
RRIRYRPPRLPRPRPRPMSNPRP | -0.709
RRIRERPPRLPRPRPRPPEGPRP | 0.233
RRIRKRPPRLPRPRPRPNLLPRP | -0.263
RRIRSRPPRLPRPRPRPVNWPRP | 0.142
RRIRPRPPRLPRPRPRPHQQPRP | -0.14
RRIRSRPPRLPRPRPRPDPIPRP | -0.0376
RRIRRRPPRLPRPRPRPHAPPRP | 0.353
RRIRHRPPRLPRPRPRPRGNPRP | 0.174
RRIRRRPPRLPRPRPRPTKRPRP | 0.145
RRIRPRPPRLPRPRPRPIPFPRP | -0.0358
RRIRFRPPRLPRPRPRPDNKPRP | -0.853
RRIRSRPPRLPRPRPRPFHIPRP | -1.07
RRIRSRPPRLPRPRPRPPYSPRP | -0.379
RRIRNRPPRLPRPRPRPNQNPRP | 0.337
RRIRFRPPRLPRPRPRPMSKPRP | -0.0951

Sequence | shrunken log2 fold change
RRIRIRPPRLPRPRPRPPRRPRP | 0.396
RRIRTRPPRLPRPRPRPGHAPRP | 0.161
RRIRWRPPRLPRPRPRPYVYPRP | 0.0229
RRIRQRPPRLPRPRPRPGCMPRP | 0.175
RRIRSRPPRLPRPRPRPNNFPRP | -0.667
RRIRGRPPRLPRPRPRPPKAPRP | 0.63
RRIRRRPPRLPRPRPRPNYHPRP | -0.223
RRIRKRPPRLPRPRPRPAHMPRP | 0.686
RRIRHRPPRLPRPRPRPCFFPRP | -0.193
RRIRERPPRLPRPRPRPTCTPRP | 0.199
RRIRDRPPRLPRPRPRPVTGPRP | 0.148
RRIRNRPPRLPRPRPRPSPDPRP | 0.0143
RRIRVRPPRLPRPRPRPIPLPRP | -0.107
RRIRWRPPRLPRPRPRPLANPRP | 0.552
RRIRDRPPRLPRPRPRPVEVPRP | 0.43
RRIRHRPPRLPRPRPRPKRQPRP | -0.0409
RRIRMRPPRLPRPRPRPSALPRP | 0.105
RRIRYRPPRLPRPRPRPSIDPRP | -0.519
RRIRARPPRLPRPRPRPNYVPRP | -0.35
RRIRVRPPRLPRPRPRPEGHPRP | -0.0324
RRIRVRPPRLPRPRPRPRPRPRP | 0.62
RRIRRRPPRLPRPRPRPGTCPRP | -0.087
RRIRSRPPRLPRPRPRPEYQPRP | 0.0227
RRIRLRPPRLPRPRPRPARPPRP | 0.449
RRIRERPPRLPRPRPRPEYEPRP | 0.0303

Sequence | shrunken log2 fold change
RRIRIRPPRLPRPRPRPVFYPRP | -0.333
RRIRTRPPRLPRPRPRPPKQPRP | -0.00507
RRIRGRPPRLPRPRPRPDRGPRP | -0.123
RRIRPRPPRLPRPRPRPRCRPRP | 0.217
RRIRMRPPRLPRPRPRPLIEPRP | 1.14
RRIRCRPPRLPRPRPRPSIYPRP | -0.713
RRIRTRPPRLPRPRPRPCDPPRP | -0.072
RRIRLRPPRLPRPRPRPKLVPRP | -0.0181
RRIRARPPRLPRPRPRPNDVPRP | 0.128
RRIRPRPPRLPRPRPRPMFCPRP | -0.332
RRIRLRPPRLPRPRPRPYNAPRP | -0.0942
RRIRQRPPRLPRPRPRPISFPRP | -0.0842
RRIRYRPPRLPRPRPRPPTEPRP | 0.183
RRIRSRPPRLPRPRPRPWHTPRP | -0.348
RRIRGRPPRLPRPRPRPCDDPRP | 1.24
RRIRGRPPRLPRPRPRPLQHPRP | 1.18
RRIRWRPPRLPRPRPRPTIIPRP | -0.348
RRIRPRPPRLPRPRPRPRWCPRP | 0.171
RRIRWRPPRLPRPRPRPPSTPRP | 0.402
RRIRARPPRLPRPRPRPRGKPRP | 0.376
RRIRLRPPRLPRPRPRPFIDPRP | -0.439
RRIRNRPPRLPRPRPRPQRKPRP | 0.103
RRIRSRPPRLPRPRPRPGDWPRP | 0.223
RRIRIRPPRLPRPRPRPNYGPRP | 0.0426
RRIRNRPPRLPRPRPRPNAFPRP | -0.126

Sequence | shrunken log2 fold change
RRIRDRPPRLPRPRPRPLYMPRP | 0.383
RRIRCRPPRLPRPRPRPSRKPRP | -0.227
RRIRIRPPRLPRPRPRPMVPPRP | 0.0231
RRIRLRPPRLPRPRPRPEGEPRP | 0.624
RRIRIRPPRLPRPRPRPFTEPRP | 0.0282
RRIRFRPPRLPRPRPRPTEKPRP | -0.0949
RRIRQRPPRLPRPRPRPCITPRP | -0.167
RRIRERPPRLPRPRPRPYAQPRP | -0.384
RRIRKRPPRLPRPRPRPTEIPRP | 0.162
RRIRSRPPRLPRPRPRPWWEPRP | -0.0921
RRIRYRPPRLPRPRPRPRVKPRP | 0.0364
RRIRQRPPRLPRPRPRPMPWPRP | 0.117
RRIRLRPPRLPRPRPRPWLHPRP | -0.0284
RRIRDRPPRLPRPRPRPHQPPRP | -0.017
RRIRWRPPRLPRPRPRPLGHPRP | 0.035
RRIRLRPPRLPRPRPRPDIPPRP | -0.0741
RRIRCRPPRLPRPRPRPARTPRP | 0.359
RRIRWRPPRLPRPRPRPGCLPRP | 0.792
RRIRIRPPRLPRPRPRPIAHPRP | -0.358
RRIRMRPPRLPRPRPRPLDCPRP | 0.262
RRIRYRPPRLPRPRPRPYFGPRP | 0.0143
RRIRARPPRLPRPRPRPRSRPRP | 0.757
RRIRKRPPRLPRPRPRPQKWPRP | 0.0282
RRIRARPPRLPRPRPRPVVYPRP | -0.285
RRIRLRPPRLPRPRPRPKWIPRP | 0.137

Sequence | shrunken log2 fold change
RRIRSRPPRLPRPRPRPTNFPRP | 0.0979
RRIRNRPPRLPRPRPRPPGSPRP | -0.123
RRIRVRPPRLPRPRPRPCIAPRP | -0.298
RRIRARPPRLPRPRPRPRTKPRP | 0.565
RRIRCRPPRLPRPRPRPKAEPRP | 0.173
RRIRCRPPRLPRPRPRPGFQPRP | -0.356
RRIRSRPPRLPRPRPRPPYAPRP | 0.0164
RRIRRRPPRLPRPRPRPIKVPRP | -0.186
RRIRSRPPRLPRPRPRPGATPRP | 0.584
RRIRARPPRLPRPRPRPQDFPRP | -0.0122
RRIRDRPPRLPRPRPRPMFDPRP | 0.894
RRIRPRPPRLPRPRPRPARLPRP | 0.00523
RRIRLRPPRLPRPRPRPGYLPRP | -0.282
RRIRMRPPRLPRPRPRPMPIPRP | 0.0625
RRIRMRPPRLPRPRPRPQPQPRP | 0.717
RRIRWRPPRLPRPRPRPWFQPRP | -0.125
RRIRERPPRLPRPRPRPFCCPRP | -0.0198
RRIRCRPPRLPRPRPRPFICPRP | -0.57
RRIRHRPPRLPRPRPRPERNPRP | 0.036
RRIRRRPPRLPRPRPRPHSPPRP | 0.252
RRIRYRPPRLPRPRPRPQGQPRP | -0.262
RRIRLRPPRLPRPRPRPSHHPRP | -0.319
RRIRYRPPRLPRPRPRPGYIPRP | -0.0964
RRIRYRPPRLPRPRPRPCQGPRP | -0.0126
RRIRMRPPRLPRPRPRPSQDPRP | 0.224
